In publication PMC3712460:
Substitutions are numbered along the chain they refer to. In names and notes the source's numbering stands.

B1: NapD^His (natural protein)
chain: MHTNWQVCSLVVQAKSERISDISTQLNAFPGCEVAVSDAPSGQLIVVVEAEDSETLIQTIESVRNVEGVLAVSLVYHQQEEQGEETP
B2: NapD A14T/A71T (NapD^His variant) (natural protein)
chain: B1 chain with A14T, A71T
B3: NapD A14T (NapD^His variant) (natural protein)
chain: B1 chain with A14T
B4: NapD I19F/T59I (NapD^His variant) (natural protein)
chain: B1 chain with I19F, T59I
B5: NapD T59I (NapD^His variant) (natural protein)
chain: B1 chain with T59I
B6: NapD A71T (NapD^His variant) (natural protein)
chain: B1 chain with A71T
B7: NapD I19F (NapD^His variant) (natural protein)
chain: B1 chain with I19F

Key:
Experiment in all cases: ITC
[1] = biological target: NapA signal peptide (Escherichia coli) (UniProt P33937); settings: cited from earlier work
[2] = biological target: ϕMalE-NapAsp^His A17Q variant (E. coli)
[3] = biological target: ϕMalE-NapAsp^His (E. coli)
[4] = biological target: ϕMalE-NapAsp^His K10Q (E. coli)
[5] = biological target: ϕMalE-NapAsp^His M9Q (E. coli)
[6] = biological target: ϕMalE-NapAsp^His R6Q (E. coli)

Molecule | Kd [2] | stoichiometry N [2] | Kd, population 1 (two sites) [2] | Kd, population 2 (two sites) [2] | N, population 1 (two sites) [2] | N, population 2 (two sites) [2] | Kd [3] | stoichiometry N [3] | further results
NapD (from UniProt P0A9I5) | – | – | – | – | – | – | – | – | Kd [1]: 7 nM
B1 | 1100 nM | 0.16 | – | – | – | – | – | – | Kd, population 1 (two sites) [3]: 3 nM; Kd, population 2 (two sites) [3]: 143 nM; N, population 1 (two sites) [3]: 0.35; N, population 2 (two sites) [3]: 0.64; Kd [4]: 1300 nM; stoichiometry N [4]: 0.33; Kd, population 1 (two sites) [5]: 1 nM; Kd, population 2 (two sites) [5]: 75 nM; N, population 1 (two sites) [5]: 0.13; N, population 2 (two sites) [5]: 0.65; Kd [6]: 725 nM; stoichiometry N [6]: 0.6
B2 | – | – | 12 nM | 218 nM | 0.3 | 0.69 | 571 nM | 0.91 | –
B3 | 1870 nM | – | – | – | – | – | 763 nM | 0.7 | –
B4 | – | – | 22 nM | 261 nM | 0.25 | 0.65 | 935 nM | 0.39 | –
B5 | 633 nM | 0.57 | – | – | – | – | 328 nM | 0.81 | –
B6 | 833 nM | 1.11 | – | – | – | – | 313 nM | 0.83 | –
B7 | – | – | 14 nM | 704 nM | 0.29 | 0.62 | 806 nM | 0.97 | –
